For test [1], the target named is human 4-1BB on T cells (human) (UniProt Q07011). Nature of the test: flow cytometry, normal (non-activated) human CD4+ T cells.
The target is the same in test [2]. The test is described as follows: flow cytometry, PBL CD8+ T cells, rheumatoid arthritis patient.
The target is the same in test [3]. The test is described as follows: flow cytometry, synovial lymphocyte CD8+ T cells, rheumatoid arthritis patient 2.
Test [4] shares this target.
Test [5] shares this target. The test is described as follows: flow cytometry, normal (non-activated) human CD8+ T cells.
Test [6] shares this target. Nature of the test: flow cytometry, human CD8+ T cells activated with Con A for 24 hours.
Test [7] has the same target. The test is described as follows: flow cytometry, synovial lymphocyte CD8+ T cells, rheumatoid arthritis patient.
Test [8] has the same target. Nature of the test: flow cytometry, synovial lymphocyte CD4+ T cells, rheumatoid arthritis patient.
Test [9] has the same target. Nature of the test: flow cytometry, PBL CD4+ T cells, rheumatoid arthritis patient 2.
Test [10] shares this target. Nature of the test: flow cytometry, PBL CD8+ T cells, rheumatoid arthritis patient 2.
The target is the same in test [11]. Nature of the test: flow cytometry, synovial lymphocyte CD4+ T cells, rheumatoid arthritis patient 2.
The target is the same in test [12]. The test is described as follows: flow cytometry, human CD4+ T cells activated with Con A for 24 hours.
For test [13] the target is unchanged. The test is described as follows: flow cytometry, PBL CD4+ T cells, rheumatoid arthritis patient.

In the case of monoclonal antibody 4B4-1-1, the % of CD4+ T cells showing positive responses in test [1] amounted to 17%; in [12], 72%. Moreover, the % of T Cells Showing Reactivity with 4B4-1-1 in [2] amounted to 12.7%; in test [3] it was 42.4%; in test [7] it was 68.1%; in test [8] it was 11.3%; in [9], 20%; in [10] it was 43.5%. Further, the results for the % of T Cells Showing Reactivity with 4B4-1-1 in [11] and in test [13] were 38% and 2.2%, respectively. In test [4], this substance gave a suppression rate (%) of one way-allogeneic mixed lymphocyte reaction (3H-thymidine uptake) of 67%. The % of CD8+ T cells showing positive responses was found to be 36% in test [5] and 89% in test [6].
